Test results published in patent US20240109974A1 (SHANDONG SIMCERE BIOPHARMACEUTICAL, published 2024).

T1: Cynomolgus TNFR2-His (Sino 90102-C08H) (cynomolgus monkey, UniProt A0A2K5VET2 132-366)
T1 construct: Bought protein; also called cynomolgus monkey TNFR2; recombinant cynomolgus monkey TNFR2 protein; not shown: His tag
T1 sequence: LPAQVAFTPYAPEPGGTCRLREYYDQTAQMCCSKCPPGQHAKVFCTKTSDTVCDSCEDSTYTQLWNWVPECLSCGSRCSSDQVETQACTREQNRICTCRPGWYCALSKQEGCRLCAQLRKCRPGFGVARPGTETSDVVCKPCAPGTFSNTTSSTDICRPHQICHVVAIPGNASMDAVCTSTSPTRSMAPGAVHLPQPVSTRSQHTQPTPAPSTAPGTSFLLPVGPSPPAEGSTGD

T2: human TNFR2 on the surface of CHO-TNFR2 cells (human, UniProt P20333 23-461)
T2 construct: whole, on cells
T2 sequence (looked up): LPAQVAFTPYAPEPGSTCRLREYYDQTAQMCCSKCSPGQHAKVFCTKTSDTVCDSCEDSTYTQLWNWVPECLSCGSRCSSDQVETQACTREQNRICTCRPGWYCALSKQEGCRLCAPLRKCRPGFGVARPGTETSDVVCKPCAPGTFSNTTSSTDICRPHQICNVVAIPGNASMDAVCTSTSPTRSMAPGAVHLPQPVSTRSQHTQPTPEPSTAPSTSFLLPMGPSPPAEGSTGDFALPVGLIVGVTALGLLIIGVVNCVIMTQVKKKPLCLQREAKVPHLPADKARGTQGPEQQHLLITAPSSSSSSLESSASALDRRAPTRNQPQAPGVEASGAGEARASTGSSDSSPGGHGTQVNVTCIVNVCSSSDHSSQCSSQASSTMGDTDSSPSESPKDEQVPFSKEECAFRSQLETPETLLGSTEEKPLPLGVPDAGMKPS

T3: human TNFR2 (Novoprotein, Cat #C830) (human, UniProt P20333 23-257, limits assumed)
T3 construct: construct not described; also called human TNFR2 protein
T3 sequence (looked up): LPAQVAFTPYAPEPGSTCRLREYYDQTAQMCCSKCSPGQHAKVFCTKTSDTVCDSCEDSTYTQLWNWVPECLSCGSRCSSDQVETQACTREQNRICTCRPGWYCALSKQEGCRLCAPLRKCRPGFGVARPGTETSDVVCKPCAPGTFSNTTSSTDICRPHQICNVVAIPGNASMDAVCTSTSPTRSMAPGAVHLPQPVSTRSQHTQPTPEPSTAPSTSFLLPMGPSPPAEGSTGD


Key:
[1] = molecular target: T1, Cynomolgus TNFR2-His (Sino 90102-C08H); experiment: SPR (Biacore T200), antibody captured on Protein A chip
Method in brief: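 Anti-TNFR2 antibody was captured on a Protein A chip to give Rmax of 50 RU, then TNFR2 was injected at graded concentrations in multi-cycle kinetics. Glycine pH 1.5 regenerated the surface between cycles; KD was obtained by fitting.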

[2] = molecular target: T2, human TNFR2 on the surface of CHO-TNFR2 …; experiment: competition flow cytometry on CHO-TNFR2 cells, competitor TNFα-biotin; IC50 against 224-WT
Procedure: CHO stable cells highly expressing human TNFR2 were used for the experiment (the same as CHO-TNFR2 in Example 4). The CHO-TNFR2 cells were digested, washed twice with DPBS, then stained with Live/Dead (L/D) (20 minutes at room temperature), and plated at a density of 1×10⁵ cells/50 μl/well. A test anti-TNFR2 antibody was diluted to 6 μg/ml with a staining buffer as the starting concentration: the antibody was subjected to 3.33-fold gradient dilution, with a total of 7 concentration points. The diluted antibody was added to the plated cells at 50 μl/well, and the mixture was mixed well by gentle pipetting, and incubated at 4° C. for 30 minutes. Then the diluted 100 ng/ml of human TNFα-biotin was added at 100 μl/well, and the mixture was mixed well by gentle pipetting, and then incubated at 4° C. for 30 minutes. The mixture was washed twice with a staining buffer, and then 0.12 μg/ml PE-streptavidin (BioLegend, Cat #405204) was added at 100 μl/well; the resulting mixture was incubated at 4° C. for 30 minutes. The mixture was washed twice with a staining buffer, and then 150 μl of staining buffer was added to resuspend the cells; signals were detected by a flow cytometer (Thermo Attune NxT). The inhibitory curve of an antibody was drawn with antibody concentration as the abscissa and corresponding MFI value as the ordinate, and fitted with four parameters (GraphPad Prism9) to calculate the IC50 value. The smaller the IC50 value, the stronger the ability of an antibody to inhibit the binding of human TNFα to human TNFR2. The blocking effect of a humanized antibody was normalized to its corresponding human-murine chimeric WT antibody. The higher the percentage value, the better the inhibitory effect of the humanized antibody.

[3] = molecular target: T3, human TNFR2 (Novoprotein, Cat #C830); experiment: competition ELISA, competitor human TNFα-Biotin; area under the OD curve
Procedure: 1 μg/ml human TNFR2 (Novoprotein, Cat #C830) was pre-coated with 100 μl/well […] in an ELISA plate. All the test TNFR2 antibodies were subjected to 2.5-fold gradient dilution from the highest concentration of 30 μg/ml; the diluted antibodies were mixed with 15 ng/ml human TNFα-Biotin (Acro Biosystem, Cat #TNA-H82E3) in equal volume, respectively; the resulting mixture was added to the ELISA plate at 100 μl/well, and incubated with shaking at room temperature for 2.0 hours. The plate was washed, and then a Streptavidin-HRP working solution (diluted at 1:10000) was added at 100 μl/well, and the mixture was incubated with shaking at room temperature for 40 minutes. The plate was washed again, and then the substrate TMB of HRP was added to develop colour. A stop solution was added to stop the reaction, and then a microplate reader (MD 13) was used to read the absorbance value. The inhibitory curve of an antibody was drawn with antibody concentration as the abscissa and corresponding OD value as the ordinate, and fitted with four parameters (GraphPad Prism9) to calculate the IC50 value. The smaller the IC50 value, the stronger the ability of an antibody to inhibit the binding of human TNFα to human TNFR2. The blocking effect of a humanized antibody was normalized to its corresponding human-murine chimeric antibody WT. The higher the percentage value, the better the inhibitory effect of the humanized antibody.

| Kd [1] [nM] | koff [1] [s⁻¹] | kon [1] [M⁻¹ s⁻¹] | % Relative activity (WT antibody/test antibody) [2] [%] | AUC [3] | Binder |
| --- | --- | --- | --- | --- | --- |
| 3.95 | 0.000953 | 241000 | 108 | 7.12 | 224-Hu1 (antibody, V domains shown, Humanized form of #224; also called VH8 + VL6) VH: QVQLVQSGAEVKKPGASVKVSCKASGFNNKDIYMHWVRQAPGQGLEWIGRIDPATGNTKHDPKFQDRVTMTSDTSTNTVYMELSSLRSEDTAVYYCARSPYGDFGAMDYWGQGTLVTVSS VL: DIQMTQSPSSLSASVGDRVTITCTASSSVSSNYLHWYQQKPGKAPKLWIYSTSNLPSGVPSRFSGSGSGTDFTLTISSLQPEDFATYYCHQYHRSPWTFGQGTKVEIK |
| 3.12 | 0.000991 | 318000 | 73 | 7.44 | 224-Hu7 (antibody, V domains shown, Humanized form of #224; also called VH9 + VL10) VH: QVQLVQSGSELKKPGASVKVSCKASGFNNKDIYMHWVRQAPGQGLEWMGRIDPATGNTKHDPKFQDKAVLSSDTSVSTAYLQISSLKAEDTAVYYCARSPYGDFGAMDYWGQGTLVTVSS VL: DIQMTQSPSSLSASVGDRVTITCTASSSVSSNYLHWYQQKPGKAPKLLIYSTSNLPSGVPSRFSGSGSGTDFTLTISSLQPEDFATYYCHQYHRSPWTFGQGTKVEIK |
| 2.97 | 0.000847 | 285000 | 107 | 6.34 | 224-Hu3 (antibody, V domains shown, Humanized form of #224; also called VH9 + VL8) VH: QVQLVQSGSELKKPGASVKVSCKASGFNNKDIYMHWVRQAPGQGLEWMGRIDPATGNTKHDPKFQDKAVLSSDTSVSTAYLQISSLKAEDTAVYYCARSPYGDFGAMDYWGQGTLVTVSS VL: DIQMTQSPSSLSASVGDRVTITCTASSSVSSNYLHWYQQKPGKAPKLLIYSTSNLPSGVPSRFSGSGSGTDFTLTISSLQAEDAATYYCHQYHRSPWTFGQGTKVEIK |
| 3.17 | 0.000881 | 278000 | 102 | 6.25 | 224-Hu4 (antibody, V domains shown, Humanized form of #224; also called VH9 + VL6) VH: QVQLVQSGSELKKPGASVKVSCKASGFNNKDIYMHWVRQAPGQGLEWMGRIDPATGNTKHDPKFQDKAVLSSDTSVSTAYLQISSLKAEDTAVYYCARSPYGDFGAMDYWGQGTLVTVSS VL: DIQMTQSPSSLSASVGDRVTITCTASSSVSSNYLHWYQQKPGKAPKLWIYSTSNLPSGVPSRFSGSGSGTDFTLTISSLQPEDFATYYCHQYHRSPWTFGQGTKVEIK |
| 2.95 | 0.000835 | 283000 | 124 | 7.18 | 224-Hu2 (antibody, V domains shown, Humanized form of #224; also called VH9 + VL7) VH: QVQLVQSGSELKKPGASVKVSCKASGFNNKDIYMHWVRQAPGQGLEWMGRIDPATGNTKHDPKFQDKAVLSSDTSVSTAYLQISSLKAEDTAVYYCARSPYGDFGAMDYWGQGTLVTVSS VL: DIQMTQSPSSLSASVGDRVTITCTASSSVSSNYLHWYQQKPGSSPKLWIYSTSNLPSGVPSRFSGSGSGTDFTLTISSLQPEDFATYYCHQYHRSPWTFGQGTKVEIK |
| 3.31 | 0.000828 | 250000 | 95 | 6.87 | 224-Hu5 (antibody, V domains shown, Humanized form of #224; also called VH9 + VL9) VH: QVQLVQSGSELKKPGASVKVSCKASGFNNKDIYMHWVRQAPGQGLEWMGRIDPATGNTKHDPKFQDKAVLSSDTSVSTAYLQISSLKAEDTAVYYCARSPYGDFGAMDYWGQGTLVTVSS VL: DIQMTQSPSSLSASVGDRVTITCTASSSVSSNYLHWYQQKPGKAPKLLIYSTSNLPSGVPSRFSGSGSGTDYSLTISSLQPEDFATYYCHQYHRSPWTFGQGTKVEIK |
| 2.63 | 0.000848 | 323000 | 96 | 6.46 | 224-Hu6 (antibody, V domains shown, Humanized form of #224; also called VH8 + VL7) VH: QVQLVQSGAEVKKPGASVKVSCKASGFNNKDIYMHWVRQAPGQGLEWIGRIDPATGNTKHDPKFQDRVTMTSDTSTNTVYMELSSLRSEDTAVYYCARSPYGDFGAMDYWGQGTLVTVSS VL: DIQMTQSPSSLSASVGDRVTITCTASSSVSSNYLHWYQQKPGSSPKLWIYSTSNLPSGVPSRFSGSGSGTDFTLTISSLQPEDFATYYCHQYHRSPWTFGQGTKVEIK |
